Consider 1 molecule from patent US20250269025A1 (AVENCELL THERAPEUTICS, published 2025).

No end group written: not given here.

Test [1] concerns the target T1, CD123 on CD123 positive AML cells (Oci-AML3, Molm-13, MV4-11, primary AML cells) (human, UniProt P26951 19-378).
T1 construct: whole, on cells; Endogenous CD123 on human AML cell lines; also called target antigen CD123
The experiment in a line: cellular binding assay per table caption, Oci-AML3 cells.

The target of test [2] is T2, La epitope 5B9 (SEQ ID No. 28) fused to human Fc domain (human, also: fused to human Fc domain, order, isotype, linker not given here).
T2 construct: Coupled to a CM5 sensor chip; not shown: human Fc domain
T2 chain: KPLPEVTDEY
The experiment in a line: SPR, Biacore X100, La epitope 5B9-human Fc on CM5 chip; KD 5B9 (second number of the cell). On the procedure: Furthermore, binding of different variants of the targeting module according to the invention was analyzed using the La epitope 5B9 (SEQ ID No. 28) fused to human Fc domain which was coupled to a CM5 sensor chip on a Biacore X100 device (FIG. 3). The targeting modules were purified monomers. The targeting modules were concentrated between 2.47 to 200 nM and measured in technical duplicates. For data fitting and KD calculation a two-state-reaction binding model was applied.
For orientation: SPR reads the build-up and loss of mass on a sensor chip optically.

Test [3] has as its target T3, human CD123-Fc (human, UniProt P26951 19-305, limits assumed).
T3 construct: Coupled to a CM5 sensor chip; also called soluble recombinant CD123; not shown: Fc part
T3 sequence (looked up): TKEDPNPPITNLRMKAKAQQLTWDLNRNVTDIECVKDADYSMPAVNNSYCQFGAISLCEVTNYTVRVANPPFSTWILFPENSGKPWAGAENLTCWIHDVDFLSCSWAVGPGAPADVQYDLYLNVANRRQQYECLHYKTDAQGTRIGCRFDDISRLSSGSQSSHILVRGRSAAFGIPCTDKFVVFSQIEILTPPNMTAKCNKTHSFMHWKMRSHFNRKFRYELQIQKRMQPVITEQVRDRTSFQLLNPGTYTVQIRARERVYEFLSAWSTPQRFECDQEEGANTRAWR
The experiment in a line: SPR, Biacore X100, human CD123-Fc on CM5 chip, 1:1 model; KD CD123 (first number of the cell). The protocol: Binding of different variants of the targeting module according to the invention was analyzed by SPR measurements using human CD123-Fc coupled to a CM5 sensor chip on a Biacore X100 device (FIG. 2). Targeting modules were purified monomer except for the targeting module according to SEQ ID No. 8. […] For data fitting and KD calculation a 1:1 binding model was applied.

Test [4] concerns the target T1, CD123 on CD123 positive AML cells …. The experiment in a line: cellular binding assay per table caption, Molm-13 cells.

B1: targeting module according to SEQ ID No. 4 (bispecific antibody)
chain: GQVQLVQSGAEVKKPGASVKMSCKASGYTFTDYYMKWVKQAPGQGLEWIGDIIPSNGATFYNQKFQGRATLTVDTSTSTAYMELSSLRSEDTAVYYCTRSHLLRASWFAYWGQGTLVTVSSASGGGGSGGGGSGGGGSDIVMTQSPDSLAVSLGERATINCKSSQSLLNSGNQKNYLTWYLQKPGQPPKLLIYWASTRESGVPDRFSGSGSGTDFTLTISSVQAEDVAVYYCQNDYSYPYTFGGGTKLEIKAAARGDIVMTQSPDSLAVSLGERVTMNCKSSQSLLNSRTPKNYLAWYQQKPGQSPKLLIYWASTRKSGVPDRFSGSGSGTDFTLTISSVQAEDVAVYYCKQSYNLLTFGGGTKLEIKGGGGSGGGGSGASAAGGGGSGGGGSQVQLVESGAEVVKPGASVKLSCKASGYAFTHYYIYWIKQAPGQGLEWIGGVNPSNGGTHFNEKFKSRATLTVDTSISTAYMELSRLRSDDTAVYYCTRSEYDYGLGFAYWGQGTLVTVSSGGGGSHHHHHHHH
notes: also called huCD123_2 + rs5B9-VLVH
In the case of B1, the figures for the EC50 in test [1] and in test [4] were 0.026 nM and 0.0071 nM, respectively. Besides, the Kd came out at 3.4 nM in test [2] and 5.2 nM in test [3].

Usually EC50 stands for the midpoint of the concentration-response curve. In general, Kd refers to the concentration at which binding is half-saturated. A low value points to tighter binding.
